Results: PMC5837747

Target: HA-14-3-3β (UniProt P31946)
Assay: GFP co-immunoprecipitation, HA blot, densitometry

binding against the reference (reference: S1093A single mutant, sites S1163)	binding against the reference (reference: S1163A single mutant, sites S1093)	binding against the reference (reference: wild type (unstimulated and PMA-treated cells), sites S1093,S1163)	Substance
weaker	weaker	–	mouse CdGAP (mCdGAP, GFP-CdGAP) (from UniProt A6X8Z5) S1093A/S1163A double mutant
–	–	weaker	mouse CdGAP (mCdGAP, GFP-CdGAP) (from UniProt A6X8Z5) S1093A/S1163A
